Laboratory results: patent US20260167699A1 (Chugai, published 2026)

These binders were tested against T1, FcγRIIIa extracellular domain, C-terminal His tag (human, UniProt P08637 17-208) (assay: SPR, binding activity relative to GpH7-A5/GpH7-B3/GpL16-k0 (=100)).
T1 construct: extracellular domain; also called 3a
T1 sequence (P08637 other isoform, or with tags, fused parts or gaps): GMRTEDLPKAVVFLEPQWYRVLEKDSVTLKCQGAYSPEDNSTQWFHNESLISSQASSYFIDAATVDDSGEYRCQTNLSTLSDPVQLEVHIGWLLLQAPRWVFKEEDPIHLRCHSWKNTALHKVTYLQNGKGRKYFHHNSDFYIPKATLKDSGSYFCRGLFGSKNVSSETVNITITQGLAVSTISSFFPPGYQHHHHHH

Binder | He/Con 3a
GpH7-A5/GpH7-B3 variant S324_18N/GpL16-k0 (antibody, human IgG1, kappa, He Ab; copies: 1 + 1 + 2) heavy 1: not shown heavy 2: not shown light: DIVMTQSPLSLPVTPGEPASISCQASESLVHSNRNTYLHWYLQKPGQSPQLLIYKVSNRFSGVPDRFSGSGSGTDFTLKISRVEAEDVGVYYCSQNTHVPPTFGQGTKVEIERTVAAPSVFIFPPSDEQLKSGTASVVCLLNNFYPREAKVQWKVDNALQSGNSQESVTEQDSKDSTYSLSSTLTLSKADYEKHKVYACEVTHQGLSSPVTKSFNRGEC | 103%
GpH7-A5/GpH7-B3 variant Y296_14T/GpL16-k0 (antibody, human IgG1, kappa, He Ab; copies: 1 + 1 + 2) heavy 1: not shown heavy 2: not shown light: DIVMTQSPLSLPVTPGEPASISCQASESLVHSNRNTYLHWYLQKPGQSPQLLIYKVSNRFSGVPDRFSGSGSGTDFTLKISRVEAEDVGVYYCSQNTHVPPTFGQGTKVEIERTVAAPSVFIFPPSDEQLKSGTASVVCLLNNFYPREAKVQWKVDNALQSGNSQESVTEQDSKDSTYSLSSTLTLSKADYEKHKVYACEVTHQGLSSPVTKSFNRGEC | 60.7%
GpH7-A5/GpH7-B3 variant V266_07I/GpL16-k0 (antibody, human IgG1, kappa, He Ab; copies: 1 + 1 + 2) heavy 1: not shown heavy 2: not shown light: DIVMTQSPLSLPVTPGEPASISCQASESLVHSNRNTYLHWYLQKPGQSPQLLIYKVSNRFSGVPDRFSGSGSGTDFTLKISRVEAEDVGVYYCSQNTHVPPTFGQGTKVEIERTVAAPSVFIFPPSDEQLKSGTASVVCLLNNFYPREAKVQWKVDNALQSGNSQESVTEQDSKDSTYSLSSTLTLSKADYEKHKVYACEVTHQGLSSPVTKSFNRGEC | 113%
GpH7-A5/GpH7-B3 variant Y296_09D/GpL16-k0 (antibody, human IgG1, kappa, He Ab; copies: 1 + 1 + 2) heavy 1: not shown heavy 2: not shown light: DIVMTQSPLSLPVTPGEPASISCQASESLVHSNRNTYLHWYLQKPGQSPQLLIYKVSNRFSGVPDRFSGSGSGTDFTLKISRVEAEDVGVYYCSQNTHVPPTFGQGTKVEIERTVAAPSVFIFPPSDEQLKSGTASVVCLLNNFYPREAKVQWKVDNALQSGNSQESVTEQDSKDSTYSLSSTLTLSKADYEKHKVYACEVTHQGLSSPVTKSFNRGEC | 89%
GpH7-A5/GpH7-B3 variant S324_19Q/GpL16-k0 (antibody, human IgG1, kappa, He Ab; copies: 1 + 1 + 2) heavy 1: not shown heavy 2: not shown light: DIVMTQSPLSLPVTPGEPASISCQASESLVHSNRNTYLHWYLQKPGQSPQLLIYKVSNRFSGVPDRFSGSGSGTDFTLKISRVEAEDVGVYYCSQNTHVPPTFGQGTKVEIERTVAAPSVFIFPPSDEQLKSGTASVVCLLNNFYPREAKVQWKVDNALQSGNSQESVTEQDSKDSTYSLSSTLTLSKADYEKHKVYACEVTHQGLSSPVTKSFNRGEC | 96.2%
GpH7-A5/GpH7-B3 variant Y296_19Q/GpL16-k0 (antibody, human IgG1, kappa, He Ab; copies: 1 + 1 + 2) heavy 1: not shown heavy 2: not shown light: DIVMTQSPLSLPVTPGEPASISCQASESLVHSNRNTYLHWYLQKPGQSPQLLIYKVSNRFSGVPDRFSGSGSGTDFTLKISRVEAEDVGVYYCSQNTHVPPTFGQGTKVEIERTVAAPSVFIFPPSDEQLKSGTASVVCLLNNFYPREAKVQWKVDNALQSGNSQESVTEQDSKDSTYSLSSTLTLSKADYEKHKVYACEVTHQGLSSPVTKSFNRGEC | 71.4%
GpH7-A5/GpH7-B3 variant Y296_07I/GpL16-k0 (antibody, human IgG1, kappa, He Ab; copies: 1 + 1 + 2) heavy 1: not shown heavy 2: not shown light: DIVMTQSPLSLPVTPGEPASISCQASESLVHSNRNTYLHWYLQKPGQSPQLLIYKVSNRFSGVPDRFSGSGSGTDFTLKISRVEAEDVGVYYCSQNTHVPPTFGQGTKVEIERTVAAPSVFIFPPSDEQLKSGTASVVCLLNNFYPREAKVQWKVDNALQSGNSQESVTEQDSKDSTYSLSSTLTLSKADYEKHKVYACEVTHQGLSSPVTKSFNRGEC | 75.8%
GpH7-A5/GpH7-B3 variant Y296_06M/GpL16-k0 (antibody, human IgG1, kappa, He Ab; copies: 1 + 1 + 2) heavy 1: not shown heavy 2: not shown light: DIVMTQSPLSLPVTPGEPASISCQASESLVHSNRNTYLHWYLQKPGQSPQLLIYKVSNRFSGVPDRFSGSGSGTDFTLKISRVEAEDVGVYYCSQNTHVPPTFGQGTKVEIERTVAAPSVFIFPPSDEQLKSGTASVVCLLNNFYPREAKVQWKVDNALQSGNSQESVTEQDSKDSTYSLSSTLTLSKADYEKHKVYACEVTHQGLSSPVTKSFNRGEC | 74.6%
GpH7-A5/GpH7-B3 variant Y296_04F/GpL16-k0 (antibody, human IgG1, kappa, He Ab; copies: 1 + 1 + 2) heavy 1: not shown heavy 2: not shown light: DIVMTQSPLSLPVTPGEPASISCQASESLVHSNRNTYLHWYLQKPGQSPQLLIYKVSNRFSGVPDRFSGSGSGTDFTLKISRVEAEDVGVYYCSQNTHVPPTFGQGTKVEIERTVAAPSVFIFPPSDEQLKSGTASVVCLLNNFYPREAKVQWKVDNALQSGNSQESVTEQDSKDSTYSLSSTLTLSKADYEKHKVYACEVTHQGLSSPVTKSFNRGEC | 79.5%
GpH7-A5/GpH7-B3 variant Y296_01G/GpL16-k0 (antibody, human IgG1, kappa, He Ab; copies: 1 + 1 + 2) heavy 1: not shown heavy 2: not shown light: DIVMTQSPLSLPVTPGEPASISCQASESLVHSNRNTYLHWYLQKPGQSPQLLIYKVSNRFSGVPDRFSGSGSGTDFTLKISRVEAEDVGVYYCSQNTHVPPTFGQGTKVEIERTVAAPSVFIFPPSDEQLKSGTASVVCLLNNFYPREAKVQWKVDNALQSGNSQESVTEQDSKDSTYSLSSTLTLSKADYEKHKVYACEVTHQGLSSPVTKSFNRGEC | 51.3%
GpH7-A5/GpH7-B3 variant Y296_12R/GpL16-k0 (antibody, human IgG1, kappa, He Ab; copies: 1 + 1 + 2) heavy 1: not shown heavy 2: not shown light: DIVMTQSPLSLPVTPGEPASISCQASESLVHSNRNTYLHWYLQKPGQSPQLLIYKVSNRFSGVPDRFSGSGSGTDFTLKISRVEAEDVGVYYCSQNTHVPPTFGQGTKVEIERTVAAPSVFIFPPSDEQLKSGTASVVCLLNNFYPREAKVQWKVDNALQSGNSQESVTEQDSKDSTYSLSSTLTLSKADYEKHKVYACEVTHQGLSSPVTKSFNRGEC | 66.5%
GpH7-A5/GpH7-B3 variant V266_08L/GpL16-k0 (antibody, human IgG1, kappa, He Ab; copies: 1 + 1 + 2) heavy 1: not shown heavy 2: not shown light: DIVMTQSPLSLPVTPGEPASISCQASESLVHSNRNTYLHWYLQKPGQSPQLLIYKVSNRFSGVPDRFSGSGSGTDFTLKISRVEAEDVGVYYCSQNTHVPPTFGQGTKVEIERTVAAPSVFIFPPSDEQLKSGTASVVCLLNNFYPREAKVQWKVDNALQSGNSQESVTEQDSKDSTYSLSSTLTLSKADYEKHKVYACEVTHQGLSSPVTKSFNRGEC | 117%
GpH7-A5/GpH7-B3 variant Y296_08L/GpL16-k0 (antibody, human IgG1, kappa, He Ab; copies: 1 + 1 + 2) heavy 1: not shown heavy 2: not shown light: DIVMTQSPLSLPVTPGEPASISCQASESLVHSNRNTYLHWYLQKPGQSPQLLIYKVSNRFSGVPDRFSGSGSGTDFTLKISRVEAEDVGVYYCSQNTHVPPTFGQGTKVEIERTVAAPSVFIFPPSDEQLKSGTASVVCLLNNFYPREAKVQWKVDNALQSGNSQESVTEQDSKDSTYSLSSTLTLSKADYEKHKVYACEVTHQGLSSPVTKSFNRGEC | 72.4%
GpH7-A5/GpH7-B3 variant Y296_13S/GpL16-k0 (antibody, human IgG1, kappa, He Ab; copies: 1 + 1 + 2) heavy 1: not shown heavy 2: not shown light: DIVMTQSPLSLPVTPGEPASISCQASESLVHSNRNTYLHWYLQKPGQSPQLLIYKVSNRFSGVPDRFSGSGSGTDFTLKISRVEAEDVGVYYCSQNTHVPPTFGQGTKVEIERTVAAPSVFIFPPSDEQLKSGTASVVCLLNNFYPREAKVQWKVDNALQSGNSQESVTEQDSKDSTYSLSSTLTLSKADYEKHKVYACEVTHQGLSSPVTKSFNRGEC | 58.1%
GpH7-A5/GpH7-B3 variant V266_06M/GpL16-k0 (antibody, human IgG1, kappa, He Ab; copies: 1 + 1 + 2) heavy 1: not shown heavy 2: not shown light: DIVMTQSPLSLPVTPGEPASISCQASESLVHSNRNTYLHWYLQKPGQSPQLLIYKVSNRFSGVPDRFSGSGSGTDFTLKISRVEAEDVGVYYCSQNTHVPPTFGQGTKVEIERTVAAPSVFIFPPSDEQLKSGTASVVCLLNNFYPREAKVQWKVDNALQSGNSQESVTEQDSKDSTYSLSSTLTLSKADYEKHKVYACEVTHQGLSSPVTKSFNRGEC | 84.9%
GpH7-A5/GpH7-B3 variant Y296_02A/GpL16-k0 (antibody, human IgG1, kappa, He Ab; copies: 1 + 1 + 2) heavy 1: not shown heavy 2: not shown light: DIVMTQSPLSLPVTPGEPASISCQASESLVHSNRNTYLHWYLQKPGQSPQLLIYKVSNRFSGVPDRFSGSGSGTDFTLKISRVEAEDVGVYYCSQNTHVPPTFGQGTKVEIERTVAAPSVFIFPPSDEQLKSGTASVVCLLNNFYPREAKVQWKVDNALQSGNSQESVTEQDSKDSTYSLSSTLTLSKADYEKHKVYACEVTHQGLSSPVTKSFNRGEC | 66.3%
GpH7-A5/GpH7-B3 variant Y296_18N/GpL16-k0 (antibody, human IgG1, kappa, He Ab; copies: 1 + 1 + 2) heavy 1: not shown heavy 2: not shown light: DIVMTQSPLSLPVTPGEPASISCQASESLVHSNRNTYLHWYLQKPGQSPQLLIYKVSNRFSGVPDRFSGSGSGTDFTLKISRVEAEDVGVYYCSQNTHVPPTFGQGTKVEIERTVAAPSVFIFPPSDEQLKSGTASVVCLLNNFYPREAKVQWKVDNALQSGNSQESVTEQDSKDSTYSLSSTLTLSKADYEKHKVYACEVTHQGLSSPVTKSFNRGEC | 67.9%
GpH7-A5/GpH7-B3 variant Y296_03V/GpL16-k0 (antibody, human IgG1, kappa, He Ab; copies: 1 + 1 + 2) heavy 1: not shown heavy 2: not shown light: DIVMTQSPLSLPVTPGEPASISCQASESLVHSNRNTYLHWYLQKPGQSPQLLIYKVSNRFSGVPDRFSGSGSGTDFTLKISRVEAEDVGVYYCSQNTHVPPTFGQGTKVEIERTVAAPSVFIFPPSDEQLKSGTASVVCLLNNFYPREAKVQWKVDNALQSGNSQESVTEQDSKDSTYSLSSTLTLSKADYEKHKVYACEVTHQGLSSPVTKSFNRGEC | 69.1%
GpH7-A5/GpH7-B3 variant Y296_11K/GpL16-k0 (antibody, human IgG1, kappa, He Ab; copies: 1 + 1 + 2) heavy 1: not shown heavy 2: not shown light: DIVMTQSPLSLPVTPGEPASISCQASESLVHSNRNTYLHWYLQKPGQSPQLLIYKVSNRFSGVPDRFSGSGSGTDFTLKISRVEAEDVGVYYCSQNTHVPPTFGQGTKVEIERTVAAPSVFIFPPSDEQLKSGTASVVCLLNNFYPREAKVQWKVDNALQSGNSQESVTEQDSKDSTYSLSSTLTLSKADYEKHKVYACEVTHQGLSSPVTKSFNRGEC | 53.3%
GpH7-A5/GpH7-B3 variant V266_02A/GpL16-k0 (antibody, human IgG1, kappa, He Ab; copies: 1 + 1 + 2) heavy 1: not shown heavy 2: not shown light: DIVMTQSPLSLPVTPGEPASISCQASESLVHSNRNTYLHWYLQKPGQSPQLLIYKVSNRFSGVPDRFSGSGSGTDFTLKISRVEAEDVGVYYCSQNTHVPPTFGQGTKVEIERTVAAPSVFIFPPSDEQLKSGTASVVCLLNNFYPREAKVQWKVDNALQSGNSQESVTEQDSKDSTYSLSSTLTLSKADYEKHKVYACEVTHQGLSSPVTKSFNRGEC | 56.8%
GpH7-A5/GpH7-B3 variant Y296_10E/GpL16-k0 (antibody, human IgG1, kappa, He Ab; copies: 1 + 1 + 2) heavy 1: not shown heavy 2: not shown light: DIVMTQSPLSLPVTPGEPASISCQASESLVHSNRNTYLHWYLQKPGQSPQLLIYKVSNRFSGVPDRFSGSGSGTDFTLKISRVEAEDVGVYYCSQNTHVPPTFGQGTKVEIERTVAAPSVFIFPPSDEQLKSGTASVVCLLNNFYPREAKVQWKVDNALQSGNSQESVTEQDSKDSTYSLSSTLTLSKADYEKHKVYACEVTHQGLSSPVTKSFNRGEC | 76.8%
GpH7-A5/GpH7-B3 variant Y296_16H/GpL16-k0 (antibody, human IgG1, kappa, He Ab; copies: 1 + 1 + 2) heavy 1: not shown heavy 2: not shown light: DIVMTQSPLSLPVTPGEPASISCQASESLVHSNRNTYLHWYLQKPGQSPQLLIYKVSNRFSGVPDRFSGSGSGTDFTLKISRVEAEDVGVYYCSQNTHVPPTFGQGTKVEIERTVAAPSVFIFPPSDEQLKSGTASVVCLLNNFYPREAKVQWKVDNALQSGNSQESVTEQDSKDSTYSLSSTLTLSKADYEKHKVYACEVTHQGLSSPVTKSFNRGEC | 69.1%
